Article PMC11997217, “Inactivation of GH3.5 by COP1-mediated K63-linked ubiquitination promotes seedling hypocotyl elongation” (Nature Communications, 2025)

Biological target: T1, MBP-COP1 (Arabidopsis, UniProt P43254 1-675)
T1 construct: CONSTITUTIVELY PHOTOMORPHOGENIC 1 (COP1), Arabidopsis; full-length COP1 fused with MBP-tag; The plasmid for full-length MBP-COP1 is not described in the methods; only its expression and purification are; also called CONSTITUTIVELY PHOTOMORPHOGENIC 1; full-length COP1; source: E. coli BL21, purified (amylose resin); not shown: MBP, N-terminal, kept
T1 sequence (looked up): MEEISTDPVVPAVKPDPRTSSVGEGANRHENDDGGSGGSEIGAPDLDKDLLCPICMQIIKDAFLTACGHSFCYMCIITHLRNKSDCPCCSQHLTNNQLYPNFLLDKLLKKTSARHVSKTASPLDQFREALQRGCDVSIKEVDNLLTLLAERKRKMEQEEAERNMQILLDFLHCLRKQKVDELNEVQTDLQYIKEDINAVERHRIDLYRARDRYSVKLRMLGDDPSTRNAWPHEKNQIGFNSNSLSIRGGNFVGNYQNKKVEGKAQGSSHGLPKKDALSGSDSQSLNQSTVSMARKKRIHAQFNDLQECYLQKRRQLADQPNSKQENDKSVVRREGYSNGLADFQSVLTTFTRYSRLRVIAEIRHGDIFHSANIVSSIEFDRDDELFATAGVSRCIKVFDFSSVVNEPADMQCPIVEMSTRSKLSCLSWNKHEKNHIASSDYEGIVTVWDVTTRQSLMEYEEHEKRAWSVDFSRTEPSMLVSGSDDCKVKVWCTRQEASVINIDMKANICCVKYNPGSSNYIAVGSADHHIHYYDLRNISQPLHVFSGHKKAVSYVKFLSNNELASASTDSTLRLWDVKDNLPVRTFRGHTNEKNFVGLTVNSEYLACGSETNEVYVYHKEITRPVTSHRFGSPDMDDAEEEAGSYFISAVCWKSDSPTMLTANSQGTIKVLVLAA
Assay: pull-down; 1 μg GST-GH3.5 and 1 μg MBP-tagged COP1 in 25 mM Tris-HCl pH 7.5, 100 mM NaCl, 0.25% NP40, 4 °C; captured on amylose resin; washed with 500 mM NaCl, 0.5% NP40; blots with anti-MBP and anti-GST
Settings: both partners purified

B1: GST-GH3.5 (enzyme, Arabidopsis, UniProt O81829 1-612, looked up)
chain: MPEAPKKESLEVFDLTLDQKNKQKLQLIEELTSNADQVQRQVLEEILTRNADVEYLRRHDLNGRTDRETFKNIMPVITYEDIEPEINRIANGDKSPILSSKPISEFLTSSGTSGGERKLMPTIEEELDRRSLLYSLLMPVMSQFVPGLENGKGMYFLFIKSESKTPGGLPARPVLTSYYKSSHFKERPYDPYTNYTSPNETILCSDSYQSMYSQMLCGLCQHQEVLRVGAVFASGFIRAIKFLEKHWIELVRDIRTGTLSSLITDPSVREAVAKILKPSPKLADFVEFECKKSSWQGIITRLWPNTKYVDVIVTGTMSQYIPTLDYYSNGLPLVCTMYASSECYFGVNLRPLCKPSEVSYTLIPSMAYFEFLPVHRNNGVTNSINLPKALTEKEQQELVDLVDVKLGQEYELVVTTYAGLCRYRVGDLLRVTGFKNKAPQFSFICRKNVVLSIDSDKTDEVELQNAVKNAVTHLVPFDASLSEYTSYADTSSIPGHYVLFWELCLDGNTPIPPSVFEDCCLAVEESFNTVYRQGRVSDKSIGPLEIKIVEPGTFDKLMDYAISLGASINQYKTPRCVKFAPIIELLNSRVVDSYFSPKCPKWVPGHKQWGSN
notes: the GH3.5 CDS inserted into BamHI/EcoRI of pGEX4T-1; also called GRETCHEN HAGEN 3.5; source: E. coli BL21, purified (Glutathione Sepharose 4B); not shown: GST, N-terminal, kept
binding result: binds
